Test results as given in article PMC4499152.
Read-outs that look alike come from different tables or passages of the source.

Experiments:
[1] = molecular target: T1, RPA complex (UniProt P27694;P15927;P35244 1-616;1-270;1-121); assay: pull-down
[2] = molecular target: T1, RPA complex; assay: pull-down; remark: listed apart in the source

T1 sequence (P27694 whole entry, chain 1 of 3): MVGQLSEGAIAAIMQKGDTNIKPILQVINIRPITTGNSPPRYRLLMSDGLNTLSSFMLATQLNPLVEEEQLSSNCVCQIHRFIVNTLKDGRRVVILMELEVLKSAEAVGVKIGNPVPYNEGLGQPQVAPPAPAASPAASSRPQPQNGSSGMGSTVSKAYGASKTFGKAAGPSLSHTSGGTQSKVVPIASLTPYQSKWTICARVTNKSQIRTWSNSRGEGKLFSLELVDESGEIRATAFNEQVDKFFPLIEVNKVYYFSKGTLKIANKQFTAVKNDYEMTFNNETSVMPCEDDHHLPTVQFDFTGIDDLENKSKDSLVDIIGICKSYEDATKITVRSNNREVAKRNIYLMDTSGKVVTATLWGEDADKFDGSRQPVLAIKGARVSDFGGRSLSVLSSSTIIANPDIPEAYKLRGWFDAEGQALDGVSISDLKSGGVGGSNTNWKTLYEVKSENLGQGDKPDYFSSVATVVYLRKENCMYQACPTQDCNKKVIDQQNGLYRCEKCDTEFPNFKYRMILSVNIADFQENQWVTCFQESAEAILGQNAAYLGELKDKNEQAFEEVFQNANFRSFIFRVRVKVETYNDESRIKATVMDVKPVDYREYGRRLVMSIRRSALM
T1 sequence (P15927 whole entry, chain 2 of 3): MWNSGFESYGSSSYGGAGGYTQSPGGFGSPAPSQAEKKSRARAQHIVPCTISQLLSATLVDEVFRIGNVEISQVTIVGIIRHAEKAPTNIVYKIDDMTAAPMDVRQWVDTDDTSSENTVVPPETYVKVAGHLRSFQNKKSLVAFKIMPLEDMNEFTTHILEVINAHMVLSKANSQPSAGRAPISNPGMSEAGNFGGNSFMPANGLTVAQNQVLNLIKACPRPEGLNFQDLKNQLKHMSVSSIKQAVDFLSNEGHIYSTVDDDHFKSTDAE
T1 sequence (P35244 whole entry, chain 3 of 3): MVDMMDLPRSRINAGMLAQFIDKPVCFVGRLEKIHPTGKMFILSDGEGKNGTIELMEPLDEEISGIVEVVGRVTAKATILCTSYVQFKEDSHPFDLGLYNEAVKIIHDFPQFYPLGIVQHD

TTTGCGTTTGCGTTTGCGTTTGCGTTTGCGTTTGCGTTTGCGTTTGCG (ssDNA) [ssMUT]: binds [1].

TTAGGGTTAGGGTTAGGGTTAGGGTTAGGGTTAGGGTTAGGGTTAGGG (ssDNA) [ssTEL]: binds [2].
